Source: US20190092846A1
Changes are numbered by the printed parent chain.

Legend:
[1] = target: T1, human recombinant TGF-β2 (human); experiment: ratio of the KD values of Table 4
T1 sequence: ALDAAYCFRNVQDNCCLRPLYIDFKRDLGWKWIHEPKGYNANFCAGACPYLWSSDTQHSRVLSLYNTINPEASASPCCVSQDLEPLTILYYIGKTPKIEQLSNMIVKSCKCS

[2] = target: human TGF-β1 (human) (UniProt P01137); experiment: cell-based or functional assay
[3] = target: T2, human TGF-β3 (human) (UniProt P10600); experiment: cell-based or functional assay
T2 sequence: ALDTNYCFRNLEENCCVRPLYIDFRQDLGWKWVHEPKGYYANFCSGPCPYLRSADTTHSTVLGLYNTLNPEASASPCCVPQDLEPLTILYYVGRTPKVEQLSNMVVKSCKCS

[4] = target: T3, mouse recombinant TGF-β2 (mouse) (UniProt P27090); experiment: cell-based or functional assay
T3 sequence (looked up): T1 sequence with S59T, R60K, K94N

[5] = target: T1, human recombinant TGF-β2 (human); experiment: cell-based or functional assay
[6] = target: T2, human TGF-β3 (human); experiment: BiaCORE (surface plasmon resonance)
[7] = target: T1, human recombinant TGF-β2 (human); experiment: BiaCORE (surface plasmon resonance)
[8] = target: T3, mouse recombinant TGF-β2 (mouse)

Sequence of human TGF-β1 (human) (P01137 279-390 limits assumed): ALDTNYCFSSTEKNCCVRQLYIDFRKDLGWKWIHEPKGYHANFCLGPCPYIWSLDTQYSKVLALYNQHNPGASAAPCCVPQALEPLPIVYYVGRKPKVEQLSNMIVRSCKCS

B1: CAT-152 (antibody, INN chains, looked up, human IgG4, V domains shown)
VH: EVQLVESGGGVVQPGRSLRLSCAASGFTFSSYGMHWVRQAPGKGLEWVAVIWYDGSNKYYADSVKGRFTISRDNSKNTLYLQMDSLRAEDTAVYYCGRTLESSLWGQGTLVTVSS
VL: SSELTQDPAVSVALGQTVRITCQGDSLRSYYASWYQQKPGQAPVLVIYGKNNRPSGIPDRFSGSSSGNTASLTITGAQAEDEADYYCNSRDSSSTHRGVFGGGTKLTVL
- fold lower KD for TGFβ2 than for TGFbeta 3 [1]: 16 fold
- RGA (CAGA-12 luc/Smad-2/3 RGA; IC 50 [pM]) [2]: > 100000 pM
- RGA (CAGA-12 luc/Smad-2/3 RGA; IC 50 [pM]) [3]: 1230 pM
- RGA (CAGA-12 luc/Smad-2/3 RGA; IC 50 [pM]) [4]: 298 pM
- RGA (CAGA-12 luc/Smad-2/3 RGA; IC 50 [pM]) [5]: 26 pM
- Kd [6]: 1.18 nM
- Kd [7]: 0.073 nM
- IC50 (read off the curve) (CAGA-12 luciferase reporter gene assay, HEK293T/17) [8]: 0.3 nM

B2: 1D11 (antibody, from another filing, V domains shown)
VH: QVQLQQSGPELVRPGASVKLSCKASGYIFITYWMNWVKQRPGQGLEWIGQIFPASGSTNYNEMFEGKATLTVDTSSSTAYMQLSSLTSEDSAVYYCARGDGNYALDAMDYWGQGTSVTVSS
VL: DIVLTQSPASLAVSLGQRATISCRASESVDSYGNSFMHWYQQKSGQPPKLLIYLASNLESGVPARFSGSGSRTDFTLTIDPVEADDAATYYCQQNNEDPLTFGAGTKLEIK
- RGA (CAGA-12 luc/Smad-2/3 RGA; IC 50 [pM]) [4]: > 100000 pM
